Laboratory results reported in US20170363644A1 (ROCKEFELLER UNIVERSITY, published 2017).
Where no end group is shown, it is not given here.

Target: T1, factor XII (FXII) (human, UniProt P00748 20-615)
T1 construct: Endogenous FXII in human plasma in the pulldown; purified FXII in the chromogenic assay; also called FXII zymogen
T1 sequence (looked up): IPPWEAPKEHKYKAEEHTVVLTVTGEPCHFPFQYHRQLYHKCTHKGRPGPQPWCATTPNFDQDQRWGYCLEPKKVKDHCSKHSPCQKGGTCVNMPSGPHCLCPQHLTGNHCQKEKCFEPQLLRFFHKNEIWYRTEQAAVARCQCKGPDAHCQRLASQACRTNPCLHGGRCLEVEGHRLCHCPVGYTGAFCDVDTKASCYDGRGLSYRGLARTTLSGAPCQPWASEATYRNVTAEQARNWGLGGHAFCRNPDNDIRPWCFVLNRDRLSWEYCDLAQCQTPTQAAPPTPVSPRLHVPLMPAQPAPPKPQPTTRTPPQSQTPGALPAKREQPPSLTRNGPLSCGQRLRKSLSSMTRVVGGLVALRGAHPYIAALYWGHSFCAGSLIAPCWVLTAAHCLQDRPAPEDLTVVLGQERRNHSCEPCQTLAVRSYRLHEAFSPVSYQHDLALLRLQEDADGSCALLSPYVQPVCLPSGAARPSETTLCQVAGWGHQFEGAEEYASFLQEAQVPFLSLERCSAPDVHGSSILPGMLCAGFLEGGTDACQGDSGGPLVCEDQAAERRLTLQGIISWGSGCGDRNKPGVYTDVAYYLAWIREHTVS
Experiment: streptavidin bead pulldown from human plasma, Western blot for FXII

B1: biotinylated amylin (peptide, UniProt P10997 34-70, looked up)
peptide: KCNTATCATQRLANFLVHSSNNFGAILSSTNVGSNTY
modifications: ends and bridges not checked; also: biotinylated (site not given here)
notes: Control aggregating peptide in the pulldown
binding result: no binding (tested: 500 Nm)
